The subject of series [1] is TE8, HeLa, ME180, BxPC3, and T3M4 cell strains. Put plainly: Internalization assay on GPC1 ADC (01a033), various GPC1 positive cell strains. Conditions: esophageal, pancreatic and cervical cancer derived cell strains, 37° C. It counts as cell-based. The method, then: Detection was performed on cells treated with GPC1 ADC (01a033) MMAF with anti-GPC1 mAb (biotin-labeled 02b006) and PE-labeled streptavidin.
TE8, HeLa, ME180, BxPC3, and T3M4 cell strains were detached and collected from a 10 cm plate using 0.02% EDTA. Cells were suspended in RPMI1640+10% FBS+100 U/ml penicillin+100 μg/ml streptomycin, and two 1.5 ml tubes were created at 1.0×10^6 cells/0.9 ml. To lower the internalization activity, the tubes were left standing on ice for 1 hour. 1 mg/ml of GPC1 ADC (01a033) MMAF was diluted to 24 μg/mL (160 nM) with ice-cooled RPMI1640+10% FBS+100 U/ml penicillin+100 μg/ml streptomycin. 100 μl of the ADC was added and suspended in the cell suspension and incubated on ice for 30 minutes to stain the antigens on the cell surface. After 30 minutes, the cell suspension was dispensed into 7 tubes each at 100 μl each. The cell suspension was separated into 4° C. incubation group and 37° C. incubation group in 14 tubes. The incubation times were 0.0 h, 1 h, 2 h, 3 h, 4 h, 6 h, 12 h, and 24 h. After reaching the incubation time, the cells were centrifuged at 1500 rpm at 4° C. for 5 minutes to remove the supernatant. The cells were washed with 100 μl of ice cooled PBS+0.2% BSA and subjected to centrifugation to wash the cells. Washing operation was performed three times in total. […]

The subject of the next series is LLC-mGPC1-16. Description: In vivo efficacy test on GPC1 ADC, mouse syngenic model using mGPC1 expressing LLC cell strain. The text has this:
A mouse model (syngenic mouse) with GPC1 expressed in normal cells that is consistent with GPC1 expressed from cancer cells (i.e., both mouse GPC1) can be prepared by grafting the cell strain expressing mouse GPC1 established in Example 16 into mice. The efficacy and safety can be more accurately evaluated in an experiment using such a mouse model.
FIG. 55 schematically depicts the test in this Example. Specifically, 5.0×10^6 cells of LLC-mGPC1-16 were subcutaneously grafted into female C57BL/6 mice. […] The tumor volume and body weight were measured on day 0, day 4, day 8, day 12, day 16, day 20, and day 24.

In series [2] the target is T1, Recombinant human Glypican-1 protein (Homo sapiens, UniProt P35052).
T1 construct: purchased R&D systems 4519-GP-050
T1 sequence (P35052 24-530 limits assumed): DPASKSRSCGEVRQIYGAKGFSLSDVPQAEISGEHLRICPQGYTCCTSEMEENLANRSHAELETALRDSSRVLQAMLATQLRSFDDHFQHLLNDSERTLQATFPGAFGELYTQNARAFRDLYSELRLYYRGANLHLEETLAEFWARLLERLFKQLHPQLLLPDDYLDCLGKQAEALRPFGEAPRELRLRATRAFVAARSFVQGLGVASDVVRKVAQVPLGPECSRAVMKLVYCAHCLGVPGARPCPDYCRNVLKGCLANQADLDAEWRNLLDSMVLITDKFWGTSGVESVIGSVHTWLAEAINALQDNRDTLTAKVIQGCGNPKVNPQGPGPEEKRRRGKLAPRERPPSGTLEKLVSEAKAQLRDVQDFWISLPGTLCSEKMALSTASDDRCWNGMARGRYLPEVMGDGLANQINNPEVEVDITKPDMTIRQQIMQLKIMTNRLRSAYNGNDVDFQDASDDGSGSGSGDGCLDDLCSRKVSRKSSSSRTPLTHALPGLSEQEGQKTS
Description: Antigen affinity analysis by ELISA on immobilized recombinant human GPC1. It counts as binding. The following applies: for affinity to antigen (ELISA, OD 450 nm): recombinant human GPC1 coated at 2.5 μg/mL. The method, then: The buffer used in this Example was prepared as follows.
The primary antibodies used in this Example were prepared. GPC1-CL-MMAF and anti-GPC1 monoclonal antibodies (01a033) were diluted stepwise to 100, 20, 4, 0.8, 0.16, 0.032, 0.0064, 0.00128, 0.000256, 0.0000512, and 0.00001024 nM with a dilution buffer. Recombinant human Glypican-1 proteins (CF, model number: 4519-GP-050, volume: 50 μg) were used as the antigen.
Recombinant human GPC1 was diluted to 2.5 μg/mL with PBS (−) and added to 64 wells of Immuno 96 well MicroWell Solid Plate (Maxisorp, Nunc) at 50 μL/well, and the plate was sealed. The plate was shaken, and liquid was confirmed to spread throughout the plate. Next, the following procedure was followed.
*Dilute (1) GPC1-CL-MMAF and (2) anti-GPC1 monoclonal antibody (01a033) with a dilution buffer in a 10-fold dilution series from 100 nM, and add the mixture to the 96-well microplate at 100 μL/well.
*Dilute Anti-Mouse IgG (H+L) Antibody, Human Serum Adsorbed and Peroxidase labeled (KPL, cat. No.: 474-1806) with a dilution buffer (10% Block Ace) to 0.2 μg/ml (prepare a 5000-fold dilution upon use), and add the mixture to the 96-well microplate at 100 μL/well.
*Return TMB (SurModics, TMBW-1000-01) to normal temperature before use, and add the TMB to the 96-well microplate at 100 μL/well.
*Measure absorbance at 450 nm.
*Analyze data with GraphPad Prism 6.04.
For orientation: ELISA stands for enzyme-linked immunosorbent assay.

B1: clone 01a033 (antibody)
heavy: QVQLKQSGPELVKPGASVKISCKASGYSFTGYYMHWVKQSPEKSLEWIGEINPSTGDTTYNQKFKAKATLTVDKSSSTAYMQLKSLTSEDSAVYYCAREKRDDGVFAYWGQGTLVTVSSAKTTAPSVYPLAPVCGDTTGSSVTLGCLVKGYFPEPVTLTWNSGSLSSGVHTFPAVLQSDLYTLSSSVTVTSSTWPSQSITCNVAHPASSTKVDKKIEPRGPTIKPCPPCKCPAPNLLGGPSVFIFPPKIKDVLMISLSPIVTCVVVDVSEDDPDVQISWFVNNVEVHTAQTQTHREDYNSTLRVVSALPIQHQDWMSGKEFKCKVNNKDLPAPIERTISKPKGSVRAPQVYVLPPPEEEMTKKQVTLTCMVTDFMPEDIYVEWTNNGKTELNYKNTEPVLDSDGSYFMYSKLRVEKKNWVERNSYSCSVVHEGLHNHHTTKSFSRTPGK
light: DIVMSQSPKSMSMSVGERVALSCKASENVGTYVSWYQQKPEQSPKLLIYGASNRYTGVPDRFTGSGSATDFTLTISSVQAEDLADYYCGQSYSYPLTFGAGTKLELKRADAAPTVSIFPPSSEQLTSGGASVVCFLNNFYPKDINVKWKIDGSERQNGVLNSWTDQDSKDSTYSMSSTLTLTKDEYERHNSYTCEATHKTSTSPIVKSFNRNEC
B1: the internalization activity result in series [1] is recorded as “high internalization activity”. Also, the “antitumor effect against tumor expressing mouse GPC-1” value with LLC-mGPC1-16 (1, 3, 10 mg/kg) was “high antitumor effect”. The “affinity to antigen (ELISA, OD 450 nm)” value in series [2] was “high affinity”.

B2: GPC1 ADC (conjugate)
heavy: B1 heavy
light: B1 light
In the case of B2, the tumor growth result is reported as “significantly delayed” in the series with LLC-mGPC1-16 (1 mg/kg iv day 0, 4, 8, 12, compared to the control group); “Tumor hardly grew” in the series on LLC-mGPC1-16 (3 mg/kg iv day 0, 4, 8, 12); “Tumor hardly grew” in the series with LLC-mGPC1-16 (10 mg/kg iv day 0, 4, 8, 12). Also, the body weight entry in the series with LLC-mGPC1-16 (10 mg/kg, tended to recover after 15 days from the start of administration) is “transient decrease in body weight”. Also, in the series on LLC-mGPC1-16 (syngenic mice, 1, 3, 10 mg/kg), the toxicity entry is “Significant toxicity was not observed”. Further, in series [2] (01a033 versus 01a033 ADC), the “affinity level of ADC compared with unlabeled antibody” value was “about the same”. Further, the “affinity to antigen (ELISA, OD 450 nm)” value in series [2] is recorded as “high affinity”.
